Like-named read-outs stand apart in the source and are kept apart here.
What was measured:
C3b (human) = assay: ELISA; decay acceleration assay: 250 ng C3b immobilised on Maxisorp; C3bBb formed with 400 ng Factor B and 25 ng Factor D, 2 h 37 °C; increasing concentrations of regulator, 40 min 37 °C; Bb remaining bound to C3b detected with anti-factor B polyclonal antibody
complement C3b [1] = molecular target: complement C3b (UniProt P01024); assay: ELISA; 5 µg/mL C3b or C5 immobilised on Maxisorp plates at 4 °C overnight; increasing concentrations of regulator (0.195-50 nM) in sample buffer (2% BSA in TBS, 0.05% Tween-20); detected with anti-His-tag antibodies; absorbance normalised to the highest concentration; IC50 from a 4PL nonlinear regression
complement C5 [2] = assay: as above
complement C3b [3] = molecular target: complement C3b (UniProt P01024); assay: as above; remark: listed apart in the source
complement C5 [4] = assay: as above; remark: listed apart in the source

human factor H, plasma-derived (hFH), sequence (P08603 19-1231): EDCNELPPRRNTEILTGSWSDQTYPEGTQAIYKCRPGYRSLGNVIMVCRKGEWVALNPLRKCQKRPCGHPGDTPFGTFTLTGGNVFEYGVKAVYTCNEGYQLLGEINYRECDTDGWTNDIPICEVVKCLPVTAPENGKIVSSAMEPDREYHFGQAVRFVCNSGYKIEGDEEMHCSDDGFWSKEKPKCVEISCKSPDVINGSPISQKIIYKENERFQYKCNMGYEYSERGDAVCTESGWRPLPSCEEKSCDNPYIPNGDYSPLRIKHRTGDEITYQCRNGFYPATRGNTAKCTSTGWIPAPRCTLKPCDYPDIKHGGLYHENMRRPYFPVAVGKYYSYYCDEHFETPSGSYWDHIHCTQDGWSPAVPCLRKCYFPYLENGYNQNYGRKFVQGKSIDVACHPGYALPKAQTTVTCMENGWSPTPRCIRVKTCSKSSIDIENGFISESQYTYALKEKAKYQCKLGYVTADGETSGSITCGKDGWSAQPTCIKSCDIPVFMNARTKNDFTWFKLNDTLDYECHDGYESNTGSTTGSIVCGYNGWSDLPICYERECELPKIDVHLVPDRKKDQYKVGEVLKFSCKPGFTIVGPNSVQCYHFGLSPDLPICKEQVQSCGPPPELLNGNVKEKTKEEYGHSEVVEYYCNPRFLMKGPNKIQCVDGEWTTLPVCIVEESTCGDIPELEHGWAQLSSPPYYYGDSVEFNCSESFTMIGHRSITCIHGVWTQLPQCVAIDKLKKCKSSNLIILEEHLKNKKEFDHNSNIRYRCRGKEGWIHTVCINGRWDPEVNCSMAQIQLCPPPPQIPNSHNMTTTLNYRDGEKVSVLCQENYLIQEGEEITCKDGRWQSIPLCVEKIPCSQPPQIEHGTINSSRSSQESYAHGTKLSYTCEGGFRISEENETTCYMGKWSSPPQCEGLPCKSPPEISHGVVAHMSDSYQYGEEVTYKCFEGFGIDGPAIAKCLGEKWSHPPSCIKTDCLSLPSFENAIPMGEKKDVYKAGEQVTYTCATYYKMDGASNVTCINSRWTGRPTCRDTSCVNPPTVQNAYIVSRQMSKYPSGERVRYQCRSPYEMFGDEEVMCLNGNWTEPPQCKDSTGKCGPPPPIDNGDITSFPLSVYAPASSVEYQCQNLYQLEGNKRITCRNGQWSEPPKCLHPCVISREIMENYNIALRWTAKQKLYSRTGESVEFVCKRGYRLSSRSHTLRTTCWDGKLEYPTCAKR

IC50 (C3b (human)) [nM] | IC50 (complement C3b [1]) [nM] | IC50 (complement C5 [2]) [nM] | IC50 (complement C3b [3]) [nM] | IC50 (complement C5 [4]) [nM] | Substance
 | 4.7 | 26.8 | 16.1 | 52.5 | MFHR1^I62 (FHR1_(1-2):FH1-4:FH_(19-20), variant with isoleucine at position 62 of factor H)
9.4 |  |  |  |  | MFHR1^V62 (FHR1_(1-2):FH1-4:FH_(19-20)) (from UniProt Q03591 19-143; P08603 18-264; P08603 1107-1231)
 | 6.32 | 26.8 |  |  | MFHR1^V62 (FHR1_(1-2):FH1-4:FH_(19-20), valine at position 62 of factor H)

Second part, the substance before the results:

Substance | IC50 (C3b (human)) [nM] | IC50 (complement C3b [1]) [nM] | IC50 (complement C5 [2]) [nM] | IC50 (complement C3b [3]) [nM] | IC50 (complement C5 [4]) [nM]
MFHR1^I62 (FHR1_(1-2):FH1-4:FH_(19-20), isoleucine at position 193 = position 62 of factor H) (from UniProt Q03591 19-143; P08603 18-264; P08603 1107-1231) | 7.8 |  |  |  | 
human factor H, plasma-derived (hFH) (from UniProt P08603 19-1231) (natural protein) | 3.8 |  |  |  | 

Reference: paper PMC8863895
